Results published in patent US20240228586A1.

Target: IL-12 receptor complex (IL-12Rb1 and IL-12Rb2) on preactivated primary mouse CD8+ T cells (mouse) (UniProt Q60837)
Experiment: cell-based or functional assay

Chain of IL-12 receptor complex (IL-12Rb1 and IL-12Rb2) on preactivated primary mouse CD8+ T cells (mouse) (Q60837 20-738, chain 1 of 2): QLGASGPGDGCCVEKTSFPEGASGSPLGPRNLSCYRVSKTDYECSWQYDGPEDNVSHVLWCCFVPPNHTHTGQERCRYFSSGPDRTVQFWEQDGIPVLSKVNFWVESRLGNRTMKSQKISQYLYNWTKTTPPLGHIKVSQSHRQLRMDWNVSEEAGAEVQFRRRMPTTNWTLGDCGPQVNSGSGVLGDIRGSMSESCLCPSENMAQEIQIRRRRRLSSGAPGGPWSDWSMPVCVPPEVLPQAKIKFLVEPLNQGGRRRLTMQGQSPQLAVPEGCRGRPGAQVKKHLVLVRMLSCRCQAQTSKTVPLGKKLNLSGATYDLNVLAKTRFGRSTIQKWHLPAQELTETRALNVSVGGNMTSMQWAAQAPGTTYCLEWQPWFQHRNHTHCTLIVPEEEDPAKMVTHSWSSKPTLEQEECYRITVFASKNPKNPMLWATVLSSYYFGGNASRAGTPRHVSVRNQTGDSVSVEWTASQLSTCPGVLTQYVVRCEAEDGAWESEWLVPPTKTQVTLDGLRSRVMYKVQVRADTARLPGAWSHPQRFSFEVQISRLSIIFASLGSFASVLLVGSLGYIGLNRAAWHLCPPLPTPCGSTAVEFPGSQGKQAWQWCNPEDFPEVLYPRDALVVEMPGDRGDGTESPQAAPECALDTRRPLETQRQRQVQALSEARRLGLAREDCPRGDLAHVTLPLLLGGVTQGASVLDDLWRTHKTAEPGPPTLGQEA
Chain of IL-12 receptor complex (IL-12Rb1 and IL-12Rb2) on preactivated primary mouse CD8+ T cells (mouse) (chain, as listed by the source, chain 2 of 2): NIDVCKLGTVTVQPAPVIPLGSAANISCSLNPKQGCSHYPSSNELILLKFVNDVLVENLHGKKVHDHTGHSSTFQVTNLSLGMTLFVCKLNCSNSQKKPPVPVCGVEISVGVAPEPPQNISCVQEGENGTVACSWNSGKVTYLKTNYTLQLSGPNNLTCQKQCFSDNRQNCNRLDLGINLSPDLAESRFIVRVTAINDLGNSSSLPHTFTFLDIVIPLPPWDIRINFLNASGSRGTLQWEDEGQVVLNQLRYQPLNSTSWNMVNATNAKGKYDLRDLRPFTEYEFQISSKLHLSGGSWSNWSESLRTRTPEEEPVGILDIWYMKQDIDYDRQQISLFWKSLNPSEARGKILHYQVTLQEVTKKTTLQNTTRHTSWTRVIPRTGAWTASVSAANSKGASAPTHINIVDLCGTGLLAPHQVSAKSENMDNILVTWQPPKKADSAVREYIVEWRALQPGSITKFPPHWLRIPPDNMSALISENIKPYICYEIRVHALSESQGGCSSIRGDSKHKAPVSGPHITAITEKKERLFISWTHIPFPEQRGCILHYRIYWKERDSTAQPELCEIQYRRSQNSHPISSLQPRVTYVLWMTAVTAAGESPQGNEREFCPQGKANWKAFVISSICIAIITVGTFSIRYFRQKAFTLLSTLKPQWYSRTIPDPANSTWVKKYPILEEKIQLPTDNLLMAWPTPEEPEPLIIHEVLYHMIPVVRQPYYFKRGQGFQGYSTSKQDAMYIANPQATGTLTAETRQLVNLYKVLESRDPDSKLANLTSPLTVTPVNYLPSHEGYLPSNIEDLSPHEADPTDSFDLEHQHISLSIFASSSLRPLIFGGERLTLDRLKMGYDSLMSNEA

Row | STAT4 phosphorylation in preactivated primary mouse CD8+ T cells, EC50 compared with unmodified IL-12 (fold decrease) | Substance
1 | 100 | M-L1-IL12 (mouse IL-12Rb1 mask fused through the (G3S)11 linker to the N-terminus of mouse p35, with mouse p40) (from UniProt P43432 23-335)
2 | 100 | M-L1-IL12-CBD (from UniProt P04275 1670-1874)
3 | 100 | M-L1-IL12-MSA (from UniProt P43432 23-335)
